Measurements taken from the DeepSol protein solubility set.

Assay: soluble on expression in E. coli; label from the status in PepcDB or PDB records

| Sequence | soluble on expression in E. coli |
| --- | --- |
| MEETNAFSAFNQLLMSQNVVSPTKQPMELTNEKLMEFVRNAMQNQQGLPEVPNIIPSALPSMLSQIPTQPMPQMPVVIQTSQMNDVMGDQMLKASPSASSDMSSLDSDVADHPMTMMMQQQQDFQNPLQQLTIDSSANIAAGVNGNTEQRSSGRHETWLECFNTTKFAEYEALLFSVYVAERTDRKYDGWTYFDCLHRLQSKCRYRVRAKKQDEFYIIEEKGVHNHGAVEPVGQAGSHAGLPKTIREIVDRSYNENWPVEARTIKVDEEIQRLGLPENPRLGRQIDNRLAYLRRVKNLHETRRIQDQVNGTMVIKDPVKEAMLQALMEQNGGQLTVGQGFVDQIIANQGIPEMPIKKEEPTQPVESMEMAEQVAKPLAMNPSPDFFQFLQNQKLSHEHEQQQQQLHAAILAQAQAHAQAQAQAQQNLMESQKNIHQ | not soluble |
| GSHMAAELDSLLGQEKERFQVLPGRDKMLYVAAQNERDTLWARQVLARGDYDKNARVINENEENKRISIWLDTYYPQLAYYRIHFDEPRKPVFWLSRQRNTMSKKELEVLSQKLRALMPYADSVNITLMDDVTAAGQAEAGLKQQALPYSRRNHKGGVTFVIQGALDDVEILRARQFVDSYYRTWGGRYVQFAIELKDDWLKGRSFQYGAEGYIKMSPGHWYFPSPL | soluble |
| MGSDKIHHHHHHMDFKQVQQSFIDYIRDPSRPLPADTDVRRMQVYRELFFNNVLGFVSNGFPVLKSLYSEEEWLALVQSFFSQHDCQSPIFIDIAGEFLDFLQQQYQPTANDPVFMLELAHYEWLELAVAVAQASGDESQLSPAQIPMQALCLSKTARVAQYHFEVQHIRQDYRPQQQLDTPVFFCLYQDADCEVCFLQLNPLSAQVLAFLQAQGQASFKEIVDWLTITYPQMAPEIIAQGCTQLLEQLAAKGIVRGRQS | not soluble |
| MAELACFCYPHLENDSYKFIPFNNLAIKAMLTAKVDKKDMDKFYDSIIYGIAPPPQFKKRYNTNDNSRGMNFETIMFTKVAMLICEALNSLKVTQANVSNVLSRVVSIRHLENLVIRKENPQDILFHSKDLLLKSTLIAIGQSKEIETTITAEGGEIVFQNAAFTMWKLTYLEHQLMPILDQNFIEYKVTLNEDKPISDVHVKELVAELRWQYNKFAVITHGKGHYRIVKYSSVANHADRVYATFKSNVKTGVNNDFNLLDQRIIWQNWYAFTSSMKQGNTLDVCKRLLFQKMKPEKNPFKGLSTDRKMDEVSQVGV | soluble |
| MESESIVYGCIRDWPGDSMERRMRRAANRRVLDSLPGGEAWPFLGREMFSRCEQSGAGLYQTQIIHFGASYQAIEYEWSLWVEQFEALLRRLYWASAVVHLETEVNGSHTFRWESERGFHTPQESDLQVRCAWEREGGRR | not soluble |
| MGSDKIHHHHHHMCSDHIRLPAQLAAGDVAIRVENLSKRFAVYHTRLERLKHIVAPRRTKGFAEFWALDHVDLTIGRGEACAIIGRNGSGKSTLLQILCGTLRATSGRVAVNGRVAALLELGAGFNADFTGRENVYLNGAVLGLSHTEINERFVEIEAFAEVGDFIDQPVKTYSSGMYVRLAFAIAIHVDPQILIVDEALAVGDARFQAKCLNRIKKMQADGVTLLFVSHDVSAVRTLCDRALWLDCGKVKMLADAFSVTAQYSQFLFEGEDYAVAGNGSGSPQDSSGALQSAASQDISPSAHPEEANQSRAGACGEELMAMHRPINHWGSHVGSIVQAGIYNARGERASTFVAGEPIEVRVIFRPPLNADRKTMSVAFSLKDLRGTDLIVSTTWDQRRLDFEQAGGEACIRFRLRNQLNRGSYLLAVALEDRAGVAPQYYEYIEGAHYFTSLVEDTLFGSFVVDVEQTIEPGHSLYANARVSV | not soluble |
| MKCPRCGREYISSIPPFCICGEELEITYDYSSVDVRKWKRRNPGVWRYKELLPEVKKIITLQEGGTPLIKARISEKINVDVYIKDETRNPTGSFRDRLATVAISYGLPYASNGFIVASDGNAAASVAAYSARAEKECFVVVPRKVDKGKLIQMIAFGARIIRYGDSVDEAIEYARELSKLNGLYNVTPEDNIIGLEGQKTIAFELWEEINPTHVIVPTGSGSYIYSIYKGFKELIKIGVLEKMPRLIAVQTERCNPIAAEILGLKKECKETKALGLYVKNPVMKSRVIRAIKESGGTAVVVNENDIITGEKLLANEGIFAELSSAVVMPALLSLVEKGIIEKGDKVVLVVTGSGLKIGEGGREKFSIGGTKLEILKILEEREMYAYEIWQALGKPLKYQAVHQHIKELQELGLIKEAYRKGKRIYYKLTERGRRLIENLE | soluble |
| GPGSMLRSLFGRPSLAVLNNYGHMARPASPLLCSQRGVFADRVRAGMILKVDKRYYRVLANTRSQKGQNAASFNIKLTEVGTGRKKEVTAGHGHDFAEARAERVRLLFSGFDDDDMACFVYPEHSSDAGKEVNIPGDSLPELQQKFLCCGMPVDVLHIMPDDDESPNEKDIWSEVVMPSNYTYTVEKLTLKGMYKMAAFVECDGIIGVNDSVQVNDKVKVVIKPDGTAAFGGRAT | not soluble |
| YSFIGNPVFKKPFELDEMREYYLNFFERRGHGRIERYPVVARWRTDIYLTIASIADFQPFVTSGVAPPPANPLTISQPCIRLDDLDSVGRTGRHLTLFEMMAHHAFNYPGKEIYWKNETVAYCTELLNELGVKKEDIVYKEEPWAGGGNAGPCLEAIVGGLEVATLVFMNLEEHPEGDIEIKGARYRKMDNYIVDTGYGLERFVWASKGTPTVYDAIFPEVVDTIIDNSNVSFNREDERVRRI | not soluble |
| MKQRDSLDEKRRQLTYFTSCNAGTCQCRGFRPVLNHEDETVERRATRAERENDFAPMTRDLETLGSEEIIECRTCGHSISFHAEPLKYLSQEDLDTYTDQISDLQTCCSELSEIDPSHESLQTLYITMQILLKSLRTLTPVDVPFIGKPNFEPESLSPYILVKKFIASRPVDNAEKQRLAEIGTLFLTEMNHWKLEGFQSLADKLNVPLEQGKYRMMYVRMDYYVNMPAKYVSFKQFQTVDIFGEKFTTTFCNYLINVLNTGNYTPFGLSESDLEENSEDLITFATDLRRYLETEDPQSTSTTNRRKDSISTEDVILKYVKRKKPTDHSESSSPRELSTSPVEEPRRRKKEPSSSAKKSPETEESMALLRSLIRAIKFEGDLDAMEPKTKVEFEALNTEVSRGLSALQEEESGLIEFRVIGNDLDPFQHHEQLVHLVELQNLFGAQLPKMPKEYVTRLIFDSRHQNMVILKRDMGVIGGICFRTFPSRGFVEIVFCAITAMEQVKGYGTHLMNHCKDYMIKNKIYHMLTYADEFAIGYFTKQGFSEKLEINDTVYQGWIKEYEGATLMGCHLHPQISYTKFPDFSKGIQALHCGYKSENGAESRGKVFGGLEHLFRESSPQLLELRKVPGTDSLKMHKKSCYHLDERDDSLDSKIGAILKKLTADKNAWPFASPVDVKEVPEYYDHIKHPIDFKTMQEKLKRKAYTHQHLFIADLNRLFQNCYVFNGAEAVYYKYGYKLNELALKLLKTSFPESSWYPELPEQKPLC | not soluble |
| MMAYSDTTMMSDDIDWLRSHRGVCKVDLYNPEGQQDQDRKVICFVDVSTLNVEDKDYKDAASSSSEGNLNLGSLEEKEIIVIKDTEKKDQSKTEGSVCLFKQAPSDPVSVLNWLLSDLQKYALGFQHALSPSTSTCKHKVGDTEGEYHRASSENCYSVYADQVNIDYLMNRPQNLRLEMTAAKNTNNNQSPSAPPAKPPSTQRAVISPDGECSIDDLSFYVNRLSSLVIQMAHKEIKEKLEGKSKCLHHSICPSPGNKERISPRTPASKIASEMAYEAVELTAAEMRGTGEESREGGQKSFLYSELSNKSKSGDKQMSQRESKEFADSISKGLMVYANQVASDMMVSLMKTLKVHSSGKPIPASVVLKRVLLRHTKEIVSDLIDSCMKNLHNITGVLMTDSDFVSAVKRNLFNQWKQNATDIMEAMLKRLVSALIGEEKETKSQSLSYASLKAGSHDPKCRNQSLEFSTMKAEMKERDKGKMKSDPCKSLTSAEKVGEHILKEGLTIWNQKQGNSCKVATKACSNKDEKGEKINASTDSLAKDLIVSALKLIQYHLTQQTKGKDTCEEDCPGSTMGYMAQSTQYEKCGGGQSAKALSVKQLESHRAPGPSTCQKENQHLDSQKMDMSNIVLMLIQKLLNENPFKCEDPCEGENKCSEPRASKAASMSNRSDKAEEQCQEHQELDCTSGMKQANGQFIDKLVESVMKLCLIMAKYSNDGAALAELEEQAASANKPNFRGTRCIHSGAMPQNYQDSLGHEVIVNNQCSTNSLQKQLQAVLQWIAASQFNVPMLYFMGDKDGQLEKLPQVSAKAAEKGYSVGGLLQEVMKFAKERQPDEAVGKVARKQLLDWLLANL | not soluble |
| EKELLDNFKKNITQYAKQLEISIEKVYDEKGSVNAQKDIQNLLSEYANRQEIGEIRFIDKDQIIIATTKQSNRSLINQKANDSSVQKALSLGQSNDHLILKDYGGGKDRVWVYNIPVKVDKKVIGNIYIESKINDVYNQLNNINQ | not soluble |
| MIFVLDVGNTNAVLGVFEEGELRQHWRMETDRHKTEDEYGMLVKQLLEHEGLSFEDVKGIIVSSVVPPIMFALERMCEKYFKIKPLVVGPGIKTGLNIKYENPREVGADRIVNAVAGIHLYGSPLIIVDFGTATTYCYINEEKHYMGGVITPGIMISAEALYSRAAKLPRIEITKPSSVVGKNTVSAMQSGILYGYVGQVEGIVKRMKEEARQEPKVIATGGLAKLISEESNVIDIVDPFLTLKGLYMLYERNANLQHEKGE | not soluble |
| EILAKDQEAFMQSAKFLKEGKILAIKGIGGFHLMCDAFNEEALKTLRLRKNRPKKPFALMCKDLQSAKELAFIDEKEEALLGGVLAPIVILKAKKAFSLIAPDVDKIGIMLAYTPLHLLLFEYFKGSLVATSANLSGESIIKDEFNLCKKLDKVFDFYLDYDREIINASDDSIAQVVNGETMFLRTSR | not soluble |
| MHNLVPAPKQTQSVLIKNATVHTVIQGVLTNTDVLIENGKISALGPQLSTNTTASTQVVDASGKHLYPGLIALDTSLGLEHHHHHH | not soluble |
| MGSDKIHHHHHHMKLPRFGVEEWLNVHENSAIYDIAGVSISSLTLEELFALSGTNPEDFYKKLQGTKLNYGWIEGSPAFKKSVSQLYTGVKPEQILQTNGATGANLLVLYSLIEPGDHVISLYPTYQQLYDIPKSLGAEVDLWQIEEENGWLPDLEKLRQLIRPTTKMICINNANNPTGAVMDRTYLEELVEIASEVGAYILSDEVYRSFSELDVPSIIEVYDKGIAVNSLSKTYSLPGIRIGWVAANHQVTDILRDYRDYTMICAGVFDDLVAQLALAHYQEILERNRHILEENLAILDQWIEEEPLVSYIRPAVVSTSFVKIAVDMPMEDFCLQLLQEHGVLLVPGNRFERDGYVRLGFACEQETLIKGLEKLSQFLRRFDKEN | not soluble |
| MTQANLSETLFKPRFKHPETSTLVRRFNHGAQPPVQSALDGKTIPHWYRMINRLMWIWRGIDPREILDVQARIVMSDAERTDDDLYDTVIGYRGGNWIYEWATQAMVWQQKACAEDDPQLSGRHWLHAATLYNIAAYPHLKGDDLAEQAQALSNRAYEEAAQRLPGTMRQMEFTVPGGAPITGFLHMPKGDGPFPTVLMCGGLDAMQTDYYSLYERYFAPRGIAMLTIDMPSVGFSSKWKLTQDSSLLHQHVLKALPNVPWVDHTRVAAFGFRFGANVAVRLAYLESPRLKAVACLGPVVHTLLSDFKCQQQVPEMYLDVLASRLGMHDASDEALRVELNRYSLKVQGLLGRRCPTPMLSGYWKNDPFSPEEDSRLITSSSADGKLLEIPFNPVYRNFDKGLQEITDWIEKRLC | soluble |
| GHMQTQGLAKDAWEIPRESLRLEVKLGQGCFGEVWMGTWNGTTRVAIKTLKPGTMSPEAFLQEAQVMKKLRHEKLVQLYAVVSEEPIYIVTEYMSKGCLLDFLKGEMGKYLRLPQLVDMAAQIASGMAYVERMNYVHRDLRAANILVGENLVCKVADFGLARLIEDNEYTARQGAKFPIKWTAPEAALYGRFTIKSDVWSFGILLTELTTKGRVPYPGMVNREVLDQVERGYRMPCPPECPESLHDLMCQCWRKDPEERPTFEYLQAFLEDYFTSTEPQYQPGENL | soluble |
